Laboratory results published in US20180258187A1.

Experiments:
[1] = target: EBV-LMP2 peptide/HLA-A*02:01 complex as naturally presented on HLA-A*02:01+ EBV+ cells (BLCL, tumour cell lines) (human; Epstein-Barr virus); assay: cell-based or functional assay
[2] = target: P19 peptide (mixture of 19 endogenous control peptides) loaded T2 cell; assay: flow cytometry, phage antibody on peptide loaded T2 cells
[3] = target: EBV-LMP2 peptide presented by HLA-A*02:06 on artificial antigen presenting cells (human; Epstein-Barr virus)

B1: LMP2-38 Dimeric BsAb (bispecific antibody, part only)
VH: QSALTQPASVSGSPGQSITISCTGTSSDVGSYNDVSWYQQHPGKAPKLMIYDVSNRPSGVSNRFSGSKSGNTASLTISGLQTEDEADYYCNSYTSSNTYVFGTGTKVTVLG
VL: QVQLVQSGAEVKKPGASVQVSCRASGYTITSYYMHWVRQAPGQGLEWMGVINPNAGSTRYAQKFQGRVTMSTDTSTSTVYMALSSLRSDDTAVYYCARGMYRMYDWGQGTLVTVSS
chain 1: DVQLVQSGAEVKKPGASVKVSCKASGYTFTRYTMHWVRQAPGQGLEWIGYINPSRGYTNYADSVKGRFTITTDKSTSTAYMELSSLRSEDTATYYCARYYDDHYSLDYWGQGTTVTVSSGEGTSTGSGGSGGSGGADDIVLTQSPATLSLSPGERATLSCRASQSVSYMNWYQQKPGKAPKRWIYDTSKVASGVPARFSGSGSGTDYSLTINSLEAEDAATYYCQQWSSNPLTFGGGTKVEIK
chain 2: RTPLGDTTHTSGMVSKLSQLQTELLAALLESGLSKEALIQALGEGSGGAPHHHHHH
% Max Killing, DT BLCL (T cell dependent cytotoxicity, 51Cr release) [1]: 39.9%
% Max Killing, F BLCL (T cell dependent cytotoxicity, 51Cr release) [1]: 25.8%
% Max Killing, HONE-1-A2 (T cell dependent cytotoxicity, 51Cr release) [1]: 16.8%
% Max Killing, RPMI-6666 (T cell dependent cytotoxicity, 51Cr release) [1]: 26.5%
EC50 (µg/mL), DT BLCL (T cell dependent cytotoxicity) [1]: 0.025 µg/mL
EC50 (µg/mL), F BLCL (T cell dependent cytotoxicity) [1]: 0.033 µg/mL
EC50 (µg/mL), HONE-1-A2 (T cell dependent cytotoxicity) [1]: 0.024 µg/mL
EC50 (µg/mL), RPMI-6666 (T cell dependent cytotoxicity) [1]: 0.037 µg/mL

B2: LMP2-38-11 (antibody, name in Kabat numbering, V domains shown)
VH: QVQLVQSGAEVKKPGASVQVSCRASEYTITSYYMHWVRQAPGQGLEWMGVVNPNAGSTRYAQKFQGRVTMSTDTSTSTVYMALSSLRSDDTAVYYCARGMYRMYDWGQGTLVTVSS
VL: QSALTQPASVSGSPGQSITISCTGTSSDVGSYNDVSWYQQHPGKAPKLMIYDVSNRPSGVSNRFSGSKSGNTASLTISGLQTEDEADYYCNSYTSSNTYVFGTGTKVTVLG
ratio of specific phage antibody FACS signal to negative control FACS signal [2]: 2 to 10

B3: LMP2-38 IgG1 (antibody, V domains shown)
VH: QVQLVQSGAEVKKPGASVQVSCRASGYTITSYYMHWVRQAPGQGLEWMGVINPNAGSTRYAQKFQGRVTMSTDTSTSTVYMALSSLRSDDTAVYYCARGMYRMYDWGQGTLVTVSS
VL: QSALTQPASVSGSPGQSITISCTGTSSDVGSYNDVSWYQQHPGKAPKLMIYDVSNRPSGVSNRFSGSKSGNTASLTISGLQTEDEADYYCNSYTSSNTYVFGTGTKVTVLG
number beside the legend entry (name not given; FL2-H histogram) [3]: 81.5
